Source: publication PMC6180065, “Deciphering molecular details in the assembly of alpha-type carboxysome” (Scientific Reports, 2018)

Molecular target: T1, MBP tagged CbbL(1–136) (Halothiobacillus neapolitan (ATCC 23641), UniProt O85040 1-136)
T1 construct: Residues 1-136 (N domain) of RuBisCO large subunit CbbL of Halothiobacillus neapolitan (ATCC 23641); The coat of the ELISA; also called CbbL(N)
T1 sequence (looked up): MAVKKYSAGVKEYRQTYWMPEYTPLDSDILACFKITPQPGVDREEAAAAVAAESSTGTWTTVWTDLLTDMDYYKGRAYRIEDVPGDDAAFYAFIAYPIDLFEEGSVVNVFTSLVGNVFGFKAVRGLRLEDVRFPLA
Assay: ELISA; semi-quantitative; MaxiSorp plates coated with MBP-tagged CbbL(1–136) (30 nM in 0.1 M Na2CO3 pH 9.6, 4 °C, 12 h); CsoS1C-6xHis 5 nM to 5 μM in blocking buffer (1 mM CaCl2, 1% BSA in TBS), 1 h at room temperature; detected by 6xHis tag antibody and anti-mouse IgG-HRP; Hill equation fit; apparent Kd
Conditions: both partners purified

B1: CsoS1C-6xHis (natural protein, Halothiobacillus neapolitan (ATCC 23641))
chain: MAAVTGIALGMIETRGLVPAIEAADAMTKAAEVRLVGRQFVGGGYVTVLVRGETGAVNAAVRAGADACERVGDGLVAAHIIARVHSEVENILPKAPEA
notes: Carboxysome shell protein CsoS1C of Halothiobacillus neapolitan (ATCC 23641); printed length 98 a.a; not measured in the assay
For B1, the Kd was 120 ± 4.6 nM.
